Test results reported in article PMC8113602.

Columns and labels:
SP-gp41-CFP (HIV-1) = assay: FRET or BRET; acceptor photobleaching FRET in HEK293T cells 24 h after transfection; donor SP-gp41-CFP, acceptor CD63-YFP; 514 nm bleaching
[1] = molecular target: gp41 bait of pBT3-SUC-gp41 (ectodomain and transmembrane region of gp41, HIV-1 Env aa 534-709); assay: split-ubiquitin yeast two-hybrid, β-galactosidase activity assay; conditions: yeast NMY51, three independent yeast colonies, parent: est. 39, read off a plot

Row | Substance | reduction of FRET efficiency against CD63-YFP as acceptor (SP-gp41-CFP (HIV-1)) [%] | response [1] [Miller units]
1 | CD63_(C145A,C146A)-YFP (from UniProt P08962 1-238) (natural protein) | < 58 | –
2 | CD63 TM4LEL (aa 108-238), single membrane spanning prey (from UniProt P08962) C191A | – | 17
3 | CD63 TM4LEL (aa 108-238), single membrane spanning prey (from UniProt P08962) C177A | – | 25
4 | CD63 TM4LEL (aa 108-238), single membrane spanning prey (from UniProt P08962) C145A; C146A | – | 11
5 | CD63 TM4LEL (aa 108-238), single membrane spanning prey (from UniProt P08962) C169A; C170A | – | 30
